According to US20140120095A1 (Boehringer Ingelheim, published 2014):

Legend:
recombinant human DLL4 [1] = molecular target: T1, recombinant human DLL4 (human, UniProt Q9NR61 25-522); experiment: Biacore off-rate, periplasmic extract
T1 construct: also called rhDLL4; hDLL4

recombinant human DLL4 [2] = molecular target: T1, recombinant human DLL4; experiment: hDLL4 ELISA screen, periplasmic extract
recombinant human DLL4 [3] = molecular target: T1, recombinant human DLL4; experiment: AlphaScreen biot-hDLL4/hNotch1-Fc, periplasmic extract
[4] = molecular target: T2, human DLL4 expressed on cells (CHO-hDLL4; HEK293-hDLL4) (human, UniProt Q9NR61 27-685); experiment: cell-based or functional assay
[5] = molecular target: T3, recombinant human DLL4 (C-terminally His-tagged extracellular domain, R&D Systems) (human, UniProt Q9NR61 25-522, biotinylated in the competition ELISA); experiment: cell-based or functional assay
[6] = molecular target: T3, recombinant human DLL4 (C-terminally …); experiment: SPR (Biacore), recombinant human DLL4
Protocol: (§1) Kinetic analysis to determine the affinity of the DII4-VHH interaction is performed by Surface Plasmon Resonance (SPR) on a Biacore T100 instrument. […] Purified VHHs or Fab fragment are injected for 2 minutes at different concentrations (between 10 and 300 nM) and allowed to dissociate for 20 min at a flow rate of 45 μl/min. Between sample injections, the surfaces are regenerated with 10 mM glycine pH1.5 and 100 mM HCl. HBS-N (Hepes buffer pH7.4) is used as running buffer. If possible, data are evaluated by fitting a 1:1 interaction model (Langmuir binding) onto the binding curves. The affinity constant KD is calculated from resulting association and dissociation rate constants (kₐ) and […].

[7] = molecular target: T2, human DLL4 expressed on cells …; experiment: competition FMAT, labelled hNotch1-Fc on CHO-hDLL4 cells
[8] = molecular target: T4, mouse DLL4 expressed on CHO cells (mouse, UniProt Q9JI71 27-686); experiment: competition FMAT, labelled hNotch1-Fc on CHO-mDLL4 cells
T4 construct: whole, on cells; also called mDLL4; CHO-mDLL4
T4 sequence (Q9JI71 27-686): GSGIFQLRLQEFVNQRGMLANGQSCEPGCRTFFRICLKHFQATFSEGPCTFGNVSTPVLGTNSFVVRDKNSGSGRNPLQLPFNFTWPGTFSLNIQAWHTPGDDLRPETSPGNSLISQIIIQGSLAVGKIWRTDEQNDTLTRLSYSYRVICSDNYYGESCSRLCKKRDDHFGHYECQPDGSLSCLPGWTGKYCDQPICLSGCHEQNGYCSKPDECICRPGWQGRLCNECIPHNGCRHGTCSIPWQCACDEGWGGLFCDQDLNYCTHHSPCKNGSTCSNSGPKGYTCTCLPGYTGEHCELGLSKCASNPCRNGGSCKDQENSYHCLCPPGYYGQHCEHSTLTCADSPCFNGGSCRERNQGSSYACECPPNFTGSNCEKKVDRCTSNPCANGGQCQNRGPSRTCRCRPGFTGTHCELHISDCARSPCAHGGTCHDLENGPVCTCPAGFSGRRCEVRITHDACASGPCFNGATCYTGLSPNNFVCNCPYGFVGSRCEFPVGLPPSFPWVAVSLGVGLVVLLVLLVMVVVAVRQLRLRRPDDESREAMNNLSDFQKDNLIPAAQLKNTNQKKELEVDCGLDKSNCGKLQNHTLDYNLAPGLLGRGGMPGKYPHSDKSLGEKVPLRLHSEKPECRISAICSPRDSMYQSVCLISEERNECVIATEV

[9] = molecular target: T3, recombinant human DLL4 (C-terminally …); experiment: SPR (Biacore), rhDLL4
Protocol: as §1

[10] = molecular target: T5, recombinant mouse DLL4 (C-terminally His-tagged extracellular domain, R&D Systems) (mouse, UniProt Q9JI71 27-532); experiment: SPR (Biacore), rmDLL4
T5 construct: extracellular domain; also called rmDLL4; mDLL4
T5 sequence (Q9JI71 27-532): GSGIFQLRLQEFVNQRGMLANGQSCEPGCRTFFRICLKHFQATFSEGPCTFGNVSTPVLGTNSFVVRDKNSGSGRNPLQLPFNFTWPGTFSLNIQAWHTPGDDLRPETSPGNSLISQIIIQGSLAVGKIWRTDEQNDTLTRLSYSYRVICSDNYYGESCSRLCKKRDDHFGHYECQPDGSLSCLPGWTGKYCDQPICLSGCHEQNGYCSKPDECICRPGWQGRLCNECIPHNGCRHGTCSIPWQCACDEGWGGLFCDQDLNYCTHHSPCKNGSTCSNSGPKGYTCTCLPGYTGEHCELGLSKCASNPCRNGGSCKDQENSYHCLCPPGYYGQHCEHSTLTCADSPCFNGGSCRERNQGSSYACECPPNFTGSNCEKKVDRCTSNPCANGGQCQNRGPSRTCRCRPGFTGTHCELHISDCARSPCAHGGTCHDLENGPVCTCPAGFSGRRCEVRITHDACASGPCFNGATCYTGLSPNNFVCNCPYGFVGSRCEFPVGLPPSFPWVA

[11] = molecular target: T2, human DLL4 expressed on cells …; experiment: cell-based or functional assay; remark: listed apart in the source
[12] = molecular target: T6, cynomolgus DLL4 expressed on CHO cells (cynomolgus, UniProt Q9NR61 27-685 (human entry)); experiment: FACS on CHO-cDLL4 cells
T6 construct: also called cDLL4; CHO-cDLL4
T6 chain: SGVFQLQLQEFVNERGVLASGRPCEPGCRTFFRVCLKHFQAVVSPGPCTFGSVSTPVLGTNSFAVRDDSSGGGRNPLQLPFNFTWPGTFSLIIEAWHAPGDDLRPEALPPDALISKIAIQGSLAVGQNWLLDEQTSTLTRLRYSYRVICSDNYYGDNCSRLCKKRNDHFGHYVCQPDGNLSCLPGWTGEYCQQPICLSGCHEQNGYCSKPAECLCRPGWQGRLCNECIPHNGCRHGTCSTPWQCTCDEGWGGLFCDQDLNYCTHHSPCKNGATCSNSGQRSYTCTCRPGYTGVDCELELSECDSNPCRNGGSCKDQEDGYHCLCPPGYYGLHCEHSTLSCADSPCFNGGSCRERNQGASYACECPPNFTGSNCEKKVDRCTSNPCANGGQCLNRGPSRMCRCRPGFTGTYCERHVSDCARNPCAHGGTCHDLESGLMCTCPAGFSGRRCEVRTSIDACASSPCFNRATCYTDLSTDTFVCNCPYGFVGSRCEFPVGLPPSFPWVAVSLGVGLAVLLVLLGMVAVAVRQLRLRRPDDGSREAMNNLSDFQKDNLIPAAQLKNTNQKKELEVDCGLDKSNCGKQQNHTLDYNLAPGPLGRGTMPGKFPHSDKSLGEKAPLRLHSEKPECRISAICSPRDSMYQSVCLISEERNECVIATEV

[13] = molecular target: T2, human DLL4 expressed on cells …; experiment: FACS on CHO-hDLL4 cells
[14] = molecular target: T3, recombinant human DLL4 (C-terminally …); experiment: SPR (Biacore); summary table
[15] = molecular target: T5, recombinant mouse DLL4 (C-terminally …); experiment: SPR (Biacore); summary table
[16] = molecular target: T2, human DLL4 expressed on cells …; experiment: competition FMAT CHO-hDLL4; summary table
[17] = molecular target: T4, mouse DLL4 expressed on CHO cells; experiment: competition FMAT CHO-mDLL4; summary table
[18] = molecular target: T6, cynomolgus DLL4 expressed on CHO cells; experiment: FACS; summary table, column taken as cDLL4
[19] = molecular target: T2, human DLL4 expressed on cells …; experiment: FACS; summary table, column taken as hDLL4
[20] = molecular target: T3, recombinant human DLL4 (C-terminally …); experiment: competition ELISA hDLL4/hNotch1-Fc; summary table
[21] = molecular target: T2, human DLL4 expressed on cells …; experiment: competition FMAT, labelled hNotch1-Fc on CHO-hDLL4 cells; remark: listed apart in the source
[22] = molecular target: T4, mouse DLL4 expressed on CHO cells; experiment: competition FMAT, labelled hNotch1-Fc on CHO-mDLL4 cells; remark: listed apart in the source
[23] = molecular target: T3, recombinant human DLL4 (C-terminally …); experiment: competition ELISA, biotinylated hDLL4 to coated hNotch1-Fc
human DLL1 (Alexis) = molecular target: T7, human DLL1 (Alexis) (human, UniProt O00548 18-545, limits assumed); experiment: binding ELISA on coated human DLL1 (Example 5.8, Example 7), OD 450 nm
T7 construct: also called hDLL1
T7 sequence (looked up): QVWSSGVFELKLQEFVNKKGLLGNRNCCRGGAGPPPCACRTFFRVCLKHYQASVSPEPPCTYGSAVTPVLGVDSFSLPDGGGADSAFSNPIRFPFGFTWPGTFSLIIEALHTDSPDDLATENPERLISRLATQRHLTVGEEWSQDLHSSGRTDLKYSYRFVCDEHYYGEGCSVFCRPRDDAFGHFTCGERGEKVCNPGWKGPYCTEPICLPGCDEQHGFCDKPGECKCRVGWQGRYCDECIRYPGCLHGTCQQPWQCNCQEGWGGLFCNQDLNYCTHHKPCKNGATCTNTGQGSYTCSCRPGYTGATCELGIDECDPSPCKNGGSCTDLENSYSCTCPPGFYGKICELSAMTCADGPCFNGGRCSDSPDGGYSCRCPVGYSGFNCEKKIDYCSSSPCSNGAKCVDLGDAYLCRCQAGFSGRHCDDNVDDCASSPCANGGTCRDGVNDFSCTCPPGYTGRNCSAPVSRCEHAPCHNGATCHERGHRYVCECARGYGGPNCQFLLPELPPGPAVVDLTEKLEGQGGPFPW

human Jagged-1 (Alexis) = molecular target: T8, human Jagged-1 (Alexis) (human, UniProt P78504 34-1067, limits assumed); experiment: binding ELISA on coated human Jagged-1 (Example 5.8, Example 7), OD 405 nm
T8 construct: also called hJag-1; hJAG1

[24] = molecular target: T3, recombinant human DLL4 (C-terminally …); experiment: binding ELISA on coated recombinant human DLL4 (Example 5.8, Example 7), OD 450 nm
[25] = molecular target: T5, recombinant mouse DLL4 (C-terminally …); experiment: binding ELISA on coated recombinant mouse DLL4 (Example 5.8, Example 7), OD 450 nm

B1: DLLBII19F12 (VHH)
VHH: EVQLVESGGGLVQAGGSLRLSCTASGSTFTSYAMGWYRQAPGKQRELVAAISSDDSTYYADCVKGRFTISRDNAKNTVYLQMNSLKPEDTAVYYCNAPHSDYDEEAPSDFGSWGQGTQVTVSS
- koff (recombinant human DLL4 [1]): 0.00049 s⁻¹
- % inh (recombinant human DLL4 [2]): 98%
- % inh (recombinant human DLL4 [3]): 98%

B2: DLLBII28B06 (VHH)
VHH: EVQLVESGGGLVQAGGSLRLSCAASGSTFSTYAMGWYRQDPGNQRELVAAISSDGSTHYADSVKGRFTISRDNAKNTVYLQMNSLKPEDTAVYYCYAPVKVAGLEYDYWGQGTQVTVSS
- koff (recombinant human DLL4 [1]): 0.0075 s⁻¹
- % inh (recombinant human DLL4 [2]): 23%
- % inh (recombinant human DLL4 [3]): 54%

B3: DLLBII018 (VHH, not shown: small tags and cut ends)
VHH: EVQLVESGGGLVQPGGSLRLSCAASGRTFSSYAMAWYRQAPGKEREYVAAIRWSGGTAYYADSVKGRFTISRDNAKNTVYLQMNSLRPEDTAVYYCANRAPDTRLAPYEYDHWGQGTLVTVSS
- IC50, DLL4-mediated reporter assay (hDLL4) [4]: 136 nM
- IC50, DLL4-mediated HUVEC proliferation assay [5]: 5.3 nM
- Inhibition (%), DLL4-mediated HUVEC proliferation assay [5]: 100%
- Kd [6]: 0.2 nM
- koff [6]: 9.4e-05 s⁻¹
- kon [6]: 450000 M⁻¹ s⁻¹
- IC50 [7]: 11 nM
- IC50 [8]: 15.4 nM

B4: DLLBII33C05 (VHH)
VHH: EVQLVESGGGLVQAGGSLRLSCAASGFTLDNYVIGWFRQAPGKEREEVSCISSSGGSTDYLDSVKGRFTISRDNAKNTVYLQMNSLKPEDTAVYYCAADSLPCYYDKMVYDYWGQGTQVTVSS
- koff (recombinant human DLL4 [1]): 0.00092 s⁻¹
- % inh (recombinant human DLL4 [2]): 86%
- % inh (recombinant human DLL4 [3]): 75%

B5: DLLBII115A05 (VHH, not shown: small tags and cut ends)
VHH: EVQLVESGGGLVQPGGSLRLSCAASGFTFGSYDMSWVRRSPGKGPEWVSSINSGGGSTYYADFVKGRFTISRDNAKNTLYLQMNSLKPEDTAVYYCAADRYIRARQGDYWGAYEYDYWGQGTQVTVSS
notes: parent VHH; also called 115A05 (wt); 115A5
- Kd [9]: 16 nM
- koff [9]: 0.004 s⁻¹
- kon [9]: 250000 M⁻¹ s⁻¹
- Kd [10]: 53 nM
- koff [10]: 0.0091 s⁻¹
- kon [10]: 170000 M⁻¹ s⁻¹
- IC50, DLL4-mediated reporter assay [11]: 1340 nM
- EC50 [12]: 13.8 nM
- EC50 [13]: 11.3 nM
- Kd [14]: 16 nM
- Kd [15]: 53 nM
- IC50 [16]: 107 nM
- IC50 [17]: 349 nM
- EC50 [18]: 13.8 nM
- EC50 [19]: 11.3 nM
- IC50 [20]: 7.5 nM
- IC50 [21]: 107 nM
- IC50 [22]: 349 nM
- IC50 [23]: 7.5 nM
- binding result (human DLL1 (Alexis)): no binding (tested: log[M] -6.1 (about 8e-7 M))
- binding result (human Jagged-1 (Alexis)): no binding (tested: log[M] -6.1 (about 8e-7 M))
- EC50 (read off the curve) [24]: ~2 nM
- EC50 (read off the curve) [25]: ~10 nM

B6: DLLBII036 (VHH, not shown: small tags and cut ends)
VHH: EVQLVESGGGLVQPGGSLRLSCAASGFTFGSYDMSWVRRAPGKGPEWVSSISSGGGSTYYADYVKGRFTISRDNAKNTLYLQMNSLRPEDTAVYYCAADRYIWARQGEYWGAYEYDYWGQGTLVTVSS
- IC50, DLL4-mediated reporter assay (hDLL4) [4]: 78 nM
- IC50, DLL4-mediated HUVEC proliferation assay [5]: 7.6 nM
- Inhibition (%), DLL4-mediated HUVEC proliferation assay [5]: 100%
- Kd [6]: 0.8 nM
- koff [6]: 0.00055 s⁻¹
- kon [6]: 660000 M⁻¹ s⁻¹
- IC50 [7]: 9.7 nM
- IC50 [8]: 44.7 nM

B7: DLLBII039 (VHH, not shown: small tags and cut ends)
VHH: EVQLVESGGGLVQPGGSLRLSCAASGFTIGSYDMSWVRRAPGKGPEWVSSISSGGGSTYYADYVKGRFTISRDNAKNTLYLQMNSLRPEDTAVYYCAADRYIWARQGEYWGAYEYDYWGQGTLVTVSS
- IC50, DLL4-mediated reporter assay (hDLL4) [4]: 16 nM
- IC50, DLL4-mediated HUVEC proliferation assay [5]: 14.4 nM
- Inhibition (%), DLL4-mediated HUVEC proliferation assay [5]: 100%
- Kd [6]: 1.8 nM
- koff [6]: 0.00081 s⁻¹
- kon [6]: 450000 M⁻¹ s⁻¹
- IC50 [7]: 6.2 nM
- IC50 [8]: 43.8 nM
